From article PMC9592557, “Structures of SAS-6 coiled coil hold implications for the polarity of the centriolar cartwheel” (Structure(London, England:1993), 2022)
Positions count from the first letter of the chain named. Numbers in names are those of the source.

B1: CrSAS-6_CC_(Middle) (domain or fragment)
chain: KLREVKYELDTKVSELSHKLGSSEGSNRSLEEETARLRSLNQQLSSSKHELEIQLNEAKAKVLALDEKAQSQGDVIEQQRGRLRDMEAALRQTEQRCADLRDTLASAEGRAKEA
B2: CrSAS-6NL (domain or fragment, C. reinhardtii, UniProt A9CQL4 1-503, looked up)
chain: MPLLLDDGDPKAQTGFDLSTATTLFWRPVPVHVKQQDREDVLEELTFRILTGVAKQNHNLRILRIHISSDSDLFFLHTLEVSEEDFQSLKNDQGILVDFASFPGKIISLLEKCILAQPGDSPRFQAVLTIRGGESVFKIVEINDFKQLPHITLAFRPGNDSVVKQFLAFRLSEVKGTCHDLSDDLSRTRDDRDSMVAQLAQCRQQLAQLREQYDKHLLEVQAQAKTQQASAHEERIREKSQLKDQFEKERGEMEGRYRDQIAALNTRLGELDTENRKLREVKYELDTKVSELSHKLGSSEGSNRSLEEETARLRSLNQQLSSSKHELEIQLNEAKAKVLALDEKAQSQGDVIEQQRGRLRDMEAALRQTEQRCADLRDTLASAEGRAKEAQAEVLKGNQAIEKLTNDLRLAKEKTKRKAAIILRQEEELQEREQSLANATRDVGVLGQQAESLRKDVASLHSENDSLRSKLEDSKQQLQSNEQMIRWLNQQVTEAQLHASGAT
notes: C. reinhardtii SAS-6, residues 1-503: head domain and full-length coiled-coil domain, without the disordered C-terminal tail; also called WT CrSAS-6NL; C. reinhardtii SAS-6 (1-503); source: E. coli BL21(DE3), purified (HiTrap Talon, 3C cleavage, SEC); not shown: His6, N-terminal, cleaved
B3: CrSAS-6LD (domain or fragment, C. reinhardtii, UniProt A9CQL4 1-503, looked up)
chain: B2 chain with L339E, D378N
notes: C. reinhardtii SAS-6, residues 1-503, mutant aimed at the symmetric coiled-coil complex; also called C. reinhardtii SAS-6 (1-503; L339E/D378N); source: E. coli BL21(DE3), purified (HiTrap Talon, 3C cleavage, SEC); not shown: His6, N-terminal, cleaved
B4: CrSAS-6VD (domain or fragment, C. reinhardtii, UniProt A9CQL4 1-503, looked up)
chain: B2 chain with V351E, D361N
notes: C. reinhardtii SAS-6, residues 1-503, mutant aimed at the asymmetric coiled-coil complex; also called C. reinhardtii SAS-6 (1-503 V351E/D361N); source: E. coli BL21(DE3), purified (HiTrap Talon, 3C cleavage, SEC); not shown: His6, N-terminal, cleaved
B5: CrSAS-6LQ (domain or fragment, C. reinhardtii, UniProt A9CQL4 1-503, looked up)
chain: B2 chain with L320A, Q330A
notes: C. reinhardtii SAS-6, residues 1-503, control mutant; also called C. reinhardtii SAS-6 (1-503; L320A/Q330A); source: E. coli BL21(DE3), purified (HiTrap Talon, 3C cleavage, SEC); not shown: His6, N-terminal, cleaved
B6: CrSAS-6LE (domain or fragment, C. reinhardtii, UniProt A9CQL4 1-503, looked up)
chain: B2 chain with L306A, E326A
notes: C. reinhardtii SAS-6, residues 1-503, control mutant; also called C. reinhardtii SAS-6 (1-503; L306A/E326A); source: E. coli BL21(DE3), purified (HiTrap Talon, 3C cleavage, SEC); not shown: His6, N-terminal, cleaved

Experiments:
[1] = biological target: HsSAS-6_CC_(Middle) (human) (UniProt Q6UVJ0); test: SEC-MALS; step: monomers to the coiled-coil dimer; Superdex 75 or 200 10/300 GL, 10 mM K-PIPES pH 7.2
[2] = biological target: DrSAS-6_CC_(Middle) (Danio rerio) (UniProt Q7ZVT3); test: as above
[3] = biological target: the molecule itself; test: ITC
[4] = biological target: CrSAS-6_CC_(Middle) (C. reinhardtii) (UniProt A9CQL4); test: SEC-MALS; step: monomers to the coiled-coil dimer; Superdex 75 or 200 10/300 GL, 10 mM K-PIPES pH 7.2
[5] = biological target: CrSAS-6_CC_(Middle) (C. reinhardtii) (UniProt A9CQL4); test: ITC; dilution ITC, step: higher-order complex to coiled-coil dimers; 1.82 mM monomer in the syringe injected into buffer alone, 20°C, 10 mM K-PIPES pH 7.2, dissociation model
[6] = biological target: the molecule itself; test: cryo-EM cartwheel reconstitution (ring stacking) assay; purified protein dialysed overnight at 4°C into 10 mM K-PIPES pH 7.2 (no salt), vitrified, isolated cartwheels analysed

Row | Molecule | binding result [6] | further results
1 | HsSAS-6_CC_(Middle) (from UniProt Q6UVJ0 211-312) (domain or fragment) |  | stoichiometry N [1]: 2
2 | DrSAS-6_CC_(Middle) (from UniProt Q7ZVT3 243-358) (domain or fragment) |  | stoichiometry N [2]: 2
3 | B1 |  | Kd [3]: 2.3 mM; stoichiometry N [4]: 2; dH [5]: 1 kcal/mol
4 | B2 | binds | 
5 | B3 | binds | 
6 | B4 | binds | 
7 | B5 | binds | 
8 | B6 | binds | 
